Test results published in PMC5378477, “Crystal structure and dynamics of a lipid-induced potential desensitized-state of a pentameric ligand-gated channel” (eLife, 2017).

Molecular target: the molecule itself
Assay: crystal structure; GLIC wt in DDM with 50 uM DHA and 0.5 mg/ml E. coli polar extract; sitting drop at 4 °C, sodium acetate pH 3.9-4.2, ammonium sulfate, PEG4000; 3.25 Å

B1: GLIC wt (natural protein)
chain: QDMVSPPPPIADEPLTVNTGIYLIECYSLDDKAETFKVNAFLSLSWKDRRLAFDPVRSGVRVKTYEPEAIWIPEIRFVNVENARDADVVDISVSPDGTVQYLERFSARVLSPLDFRRYPFDSQTLHIYLIVRSVDTRNIVLAVDLEKVGKNDDVFLTGWDIESFTAVVKPANFALEDRLESKLDYQLRISRQYFSYIPNIILPMLFILFISWTAFWSTSYEANVTLVVSTLIAHIAFNILVETNLPKTPYMTYTGAIIFMIYLFYFVAVIEVTVQHYLKVESQPARAASITRASRIAFPVVFLLANIILAFLFFGF
notes: GLIC, prokaryotic pH-gated pentameric ligand-gated ion channel; construct as in Hilf and Dutzler 2009 and Bocquet et al. 2009; residues 5-315 are named in the structure; Homopentamer; Crystallised with 50 uM DHA and E. coli polar lipids; also called GLIC-pH4-DHA (the structure solved here); source: E. coli C43, purified (amylose resin, SEC in DDM); not shown: MBP, N-terminal, cleaved
B1 was tested, and the “stoichiometry N” value was 5.
